± gives the uncertainty stated by the source.

A short description of the series: amyloid nucleation score (Sup35N fusion, yeast selection) (log enrichment); library NNK2; higher = more nucleation; inactive = no reads after selection. In a few lines:
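Three technical output replicates were used for random libraries. Psi-negative yeast expressing peptides of 20 random codons fused to Sup35N were induced with 100 μM copper sulfate for 24 hours and grown 7 days at 30°C on medium lacking adenine and uracil, and input and output plasmid inserts were Illumina-sequenced, excluding sequences with under 100 input reads. The nucleation score is the DiMSum log enrichment of output over input reads, centred on the mode score of non-aggregating sequences.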
Regarding RSSLMYARIHCGEVRRNFLC, the amyloid nucleation score stood at 0.177 ± 0.62.
RSSSNWSTSGGILRYVVLPK returned an amyloid nucleation score of -0.151 ± 0.42.
With RSTISYDSSAQYCGGWLGLW the figure was -0.717 ± 1; with RSVRSFCVWKVELFVRSEGM, 2.01 ± 0.15.
The substance RSVWNASAFVAIFFRVRSQA registered an amyloid nucleation score of 0.547 ± 0.36.
As to RSYVHYGLLAWCYIRVSWDP, the amyloid nucleation score amounted to 0.428 ± 0.44.
On to RTCTNYVMINETVVR, for which the amyloid nucleation score entry is “inactive”.
In the case of RTERSAFLLAPGNGLSRVRR, the amyloid nucleation score amounted to 0.831 ± 0.4.
RTISMYEELVTELRNSVM came in with an amyloid nucleation score of -0.283 ± 0.33.
As for RTLGHSLYPIDIYMGSDHLG, the amyloid nucleation score result was “inactive”.
RTNFVNGLAVVVRNM: the amyloid nucleation score is -0.015 ± 0.45.
With RTPCVHMPHAVSLGLVALLL the figure was -0.318 ± 0.76; with RTQSLASQ, 0.144 ± 0.56; with RTSKGAA, 1.21 ± 0.45.
The substance RTSKPLRRMNQRGLDFACAL yielded an amyloid nucleation score of 1.04 ± 0.41.
RTSSTR displayed an amyloid nucleation score of 0.468 ± 0.28.
Substance RTVYFCQN showed an amyloid nucleation score of -1.5 ± 1.1.
The same measure for RTWCPLG: 0.486 ± 0.41; for RVDARERNELDGIYFIVGSS: -0.271 ± 1.
In turn, RVHRLQTEEVMYSSGSK returned an amyloid nucleation score of 4.96 ± 0.065.
RVLADVKRYRECQTRCRDAW gave an amyloid nucleation score of 1.04 ± 0.34.
The substance RVLTKYMFMILFSSSFSYVR gave an amyloid nucleation score of 0.154 ± 0.5.
Take RVLVVYRSLKVAESLSLTSV: the amyloid nucleation score is 0.093 ± 0.33.
For RVMSHT, the amyloid nucleation score was 0.658 ± 0.51.
With RVNFSGIDVVRLFHYCFYMK the figure was -1.51 ± 0.76; with RVPTSNLWSGNFYTALRVTG, -0.833 ± 0.63.
Consider RVPTVLFFLIVDFSCPPFSC, for which the amyloid nucleation score entry was “inactive”.
The substance RVRNMS had an amyloid nucleation score of 0.1 ± 0.32.
With RVSIVCWIFVDSREHFFSVK the figure was -0.818 ± 0.55; with RVSLTIYKC, 3.24 ± 0.12; with RVTRG, “inactive”.
With RVVWWVVGFS the figure was -0.297 ± 0.56; with RVYLMLLVQYRTWSYVFVDC, -0.402 ± 0.26; with RVYMCCSSYCGNITKVQ, 8.027 ± 0.022.
Take RVYNITILYRCLKRRLS: the amyloid nucleation score was determined as 0.878 ± 0.57.
With RWATVLLDPF, the amyloid nucleation score is -0.299 ± 0.79.
For the substance RWFIDYHGSVFCFQKYIPPV, the amyloid nucleation score is -0.526 ± 0.54.
The same measure for RWKTVFRVYVEQKALPDLIC: 5.85 ± 0.087.
In turn, RWLPSVID came in with an amyloid nucleation score of -0.302 ± 0.61.
The same measure for RWLRPRSFWMDVVGSKI: 1.83 ± 0.11; for RYCFT: 1.03 ± 0.38.
For RYFLYFCYVGPNSAMFLSR, the amyloid nucleation score was -0.27 ± 1.1.
With RYFSISAFMVMGTVNVGGYW the figure was 4.18 ± 0.045.
Substance RYFWRVSNIVWASAF registered an amyloid nucleation score of -0.498 ± 0.44.
RYFYLLWLIVTWIYSRVVIH: the amyloid nucleation score entry is “inactive”.
Turning to RYIMHL, the amyloid nucleation score was -0.105 ± 1.1.
RYINWLQYECNTLCAVDKSL: the amyloid nucleation score is -0.436 ± 0.76.
As to RYPLVKFQCYTGNYGKFGNL, the amyloid nucleation score stood at 3.01 ± 0.071.
Take RYQGLLTPVTAGRLFICIP: the amyloid nucleation score was -0.363 ± 1.1.
With RYTWWWHSLFMSDSVAMNSA the figure was -0.334 ± 0.42.
In turn, RYVYRTVGWHQFLCGTVLFW came in with an amyloid nucleation score of 0.588 ± 0.16.
SAFYKQCEWFFNLMANSLCG registered an amyloid nucleation score of -0.021 ± 0.63.
The substance SAGEKWWKGMHYARGRPVRR had an amyloid nucleation score of 0.726 ± 0.2.
Take SAKHTWVISR: the amyloid nucleation score was 0.098 ± 0.79.
The same measure for SALERVKSWSQGNNSIGDHI: -0.418 ± 1.1; for SALSLICDRWFDCFLRGTQY: 3.66 ± 0.15; for SARFCIWVYVSNGNNGMRCV: 3.52 ± 0.04.
The same measure for SAVWRHVNDLLLSR: 1.11 ± 0.4; for SAWRVCYRTNENCAPFMYVL: -1.22 ± 0.75.
As to SAYDSTCRFISGFL, the amyloid nucleation score was -1.68 ± 1.
In turn, SCAIELLVQNNSEHLRLITI gave an amyloid nucleation score of -0.266 ± 0.3.
As to SCAVSIVTGRGVHSFVKAWF, the amyloid nucleation score was determined as 0.547 ± 0.17.
The same measure for SCDRIRMCCSWCQV: 3.54 ± 0.049; for SCENTSSQELWYTCSIDLKL: 0.472 ± 0.66.
Substance SCFGRKLLLLDGA had an amyloid nucleation score of 0.203 ± 0.28.
SCFVLLSSVDSLCMQDHF returned an amyloid nucleation score of 0.311 ± 0.43.
The substance SCHVFFVTIEGNASSANGHR registered an amyloid nucleation score of 8.14 ± 0.07.
In the case of SCIYLGVLRKVCMRFIMVIV, the amyloid nucleation score was -1.03 ± 0.63.
The same measure for SCKWVRGVSRMPNHWN: -0.618 ± 1.1; for SCMFYYCCTDTYKVPYSDAM: 7.759 ± 0.067; for SCMLFEAAYPRVYMYWSRRF: -1.91 ± 0.75.
With SCRLFVLYALLFGLSVGCVL, the amyloid nucleation score result was “inactive”.
For the substance SCRRMLFGMWILGFLNR, the amyloid nucleation score entry is “inactive”.
Substance SCRTQVMVLSLLFKRKVGFN returned an amyloid nucleation score of -1.28 ± 0.36.
Take SCSANCRISLDSSRVVVPYY: the amyloid nucleation score was 0.571 ± 0.64.
SCTPGLHQGCRCSVLLWEHR had an amyloid nucleation score of 0.681 ± 0.47.
The same measure for SCWMMFHPNPMQLKFSYCVE: -0.69 ± 0.33; for SDCYDDKINVVQSKAVSITL: 0.075 ± 0.76; for SDGSREFSCKLGGAGLGDGW: 0.334 ± 0.5.
The same measure for SDHTVELFTCKPVMQTRQRT: 0.439 ± 0.27.
Take SDICTLAEQSGASIRDRLTL: the amyloid nucleation score is -0.284 ± 1.1.
As for SDMDYLWLCIVRTVLNVIYR, the amyloid nucleation score is -1.17 ± 1.1.
Turning to SDMRCGYMLRCWLVQRVSHR, the amyloid nucleation score is 1.48 ± 0.54.
The substance SDNEEKTCGAFVVLS had an amyloid nucleation score of -0.719 ± 0.49.
On to SDNMFSWRCLKDTWLDRRWA, for which the amyloid nucleation score is 0.294 ± 0.22.
For the substance SDNVLNDSSCLLYINFGAGQ, the amyloid nucleation score was 2.69 ± 0.15.
Regarding SDPALVYRITYVIQ, the amyloid nucleation score is -0.008 ± 0.49.
SDSYAILLPC: the amyloid nucleation score was 0.087 ± 0.79.
SDVRLVLAASEIRYGAGCRW showed an amyloid nucleation score of 0.299 ± 0.65.
In the case of SEANKSGVSVGWCDCAVGCV, the amyloid nucleation score was found to be 0.734 ± 0.21.
The same measure for SECMIRFVNYADGTFNIGHS: -0.22 ± 0.37; for SEERPKETRGGFWARVSSGG: 0.228 ± 0.74; for SEHLTCLWCLW: 9.924 ± 0.064.
Take SEMDPPYPEISHYRYQRNHW: the amyloid nucleation score came out at 0.11 ± 0.54.
The substance SENIRDFVLKWCYLDTHDRL registered an amyloid nucleation score of -0.261 ± 1.1.
SEQWSQIYGAFSV registered an amyloid nucleation score of -1.32 ± 0.63.
The substance SEWDLRVLTWYMWLFVPLVQ registered an amyloid nucleation score of -0.477 ± 0.39.
The same measure for SEWEYPNINE: “inactive”; for SEWSQKRGLVYTVQEFQKLY: “inactive”; for SFAAMLVSSKVVGWVTGRAT: 1.68 ± 0.21.
The same measure for SFDKGIDYRFFTFNSNVKYW: 3.49 ± 0.12; for SFEWKPVFLSRLRPRIRHQV: 5.66 ± 0.066.

Source of the values: the supplement of paper PMC12042874.
